Laboratory results reported in publication PMC11208158, “Structural mechanism of bridge RNA-guided recombination”.

B1: WT bRNA (177 nt) (structured_RNA)
RNA: AGUGCAGAGAAAAUCGGCCAGUUUUCUCUGCCUGCAGUCCGCAUGCCGUAUCGGGCCUUGGGUUCUAACCUGUUGCGUAGAUUUAUGCAGCGGACUGCCUUUCUCCCAAAGUGAUAAACCGGACAGUAUCAUGGACCGGUUUUCCCGGUAAUCCGUAUUUGCAAGGUUGGUUUCACU
B2: WT bRNA + 38-bp tDNA 6mm + 44-bp dDNA 6mm (mixed)
RNA: GGGAGUGCAGAGAAAAUCGGCCAGUUUUCUCUGCCUGCAGUCCGCAUGCCGUAUCGGGCCUUGGGUUCUAACCUGUUGCGUAGAUUUAUGCAGCGGACUGCCUUUCUCCCAAAGUGAUAAACCGGACAGUAUCAUGGACCGGUUUUCCCGGUAAUCCGUAUUUGCAAGGUUGGUUUCACU
DNA 1: GCCGGGTAATACCACCAAGTCTTCTACAGATGAGCTCG
DNA 2: CGAGCTCATCTGTAGGCCTGATGGTGGTATTACCCGGC
DNA 3: TGCAGGCCATAAGTCATACTTGTATTATCCCTCCAGTGCAGAGA
DNA 4: TCTCTGCACTGGAGGGATAATACAAGATACTGTTATGGCCTGCA

Key:
[1] = target: T1, IS621 recombinase (Escherichia coli, UniProt A0A0E0Y1P1 1-326); test: MST; 5 mM Mg2+; MST: 20 nM labelled IS621, RNA 0.076-250 nM, 37 C; labelled protein eluted in 20 mM Tris-HCl pH 7.5, 500 mM NaCl, 5 mM MgCl2, 1 mM DTT, 0.01% Tween 20; conditions: protein: recombinant; tags: N-terminal His8, Twin-Strep, HRV 3C site (tag removal not described); chain copies: 4; 5' stem loop, TBL and DBL
[2] = target: T1, IS621 recombinase; test: cryo-EM; initial synaptic complex; MST: 20 nM labelled IS621, RNA 0.076-250 nM, 37 C; labelled protein eluted in 20 mM Tris-HCl pH 7.5, 500 mM NaCl, 5 mM MgCl2, 1 mM DTT, 0.01% Tween 20; conditions: protein: recombinant; tags: N-terminal His8, Twin-Strep, HRV 3C site (tag removal not described); chain copies: 4; S6:S5 and S14:S13 duplexes with 6-nt mismatches at positions 2-7; TBL and DBL from two bRNA copies

Row | Binder | Kd [1] [nM] | binding result [2]
1 | B1 | 3 ± 1 | –
2 | B2 | – | binds
